In this assay the target is ASFV RNA polymerase subunit vRPB3-11 (African swine fever virus, strain BA71V, UniProt Q65184 1-359). The assay can be described thus: cryo-EM structure. The following applies: both partners purified.
Sequence of ASFV RNA polymerase subunit vRPB3-11 (Q65184 whole entry): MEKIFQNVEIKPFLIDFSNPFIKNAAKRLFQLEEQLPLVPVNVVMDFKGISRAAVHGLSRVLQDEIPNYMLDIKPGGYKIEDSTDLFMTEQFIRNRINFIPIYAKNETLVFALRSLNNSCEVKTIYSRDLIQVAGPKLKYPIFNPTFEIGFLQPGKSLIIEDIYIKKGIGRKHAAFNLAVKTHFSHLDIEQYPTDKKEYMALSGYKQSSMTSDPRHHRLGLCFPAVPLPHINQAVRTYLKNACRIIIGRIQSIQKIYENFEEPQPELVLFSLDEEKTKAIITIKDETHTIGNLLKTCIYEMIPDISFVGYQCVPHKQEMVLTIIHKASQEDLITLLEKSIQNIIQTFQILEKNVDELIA

B1: ASFV RNA polymerase subunit vRPB10 (natural protein)
chain: MLIPVVCFTCGFPIGTYAAIFDKARTEYIKTKMDGTLPQNIPLDASLQIELKDLITALGIPMRVCCRTHLITTLDYRKYY
As for B1, the binding result is “binds”.

The values above are taken from PMC10881513 (Nature Communications, 2024).
